Data on 1 molecule can be found in patent US20130288373A1 (published 2013).

Assay [1] has as its target T1, Flt3D1-D4, recombinant human Flt3 ectodomain variant (residues 27-434) with C-terminal hexahistidine tag (human, UniProt P36888 27-434, N-linked glycosylation (glycosylated protein from HEK293 cells)).
T1 construct: Secreted from HEK293T or HEK293S GnTI-/- cells and glycosylated; also called Flt3D14(27-434); Flt3D1-4
T1 sequence: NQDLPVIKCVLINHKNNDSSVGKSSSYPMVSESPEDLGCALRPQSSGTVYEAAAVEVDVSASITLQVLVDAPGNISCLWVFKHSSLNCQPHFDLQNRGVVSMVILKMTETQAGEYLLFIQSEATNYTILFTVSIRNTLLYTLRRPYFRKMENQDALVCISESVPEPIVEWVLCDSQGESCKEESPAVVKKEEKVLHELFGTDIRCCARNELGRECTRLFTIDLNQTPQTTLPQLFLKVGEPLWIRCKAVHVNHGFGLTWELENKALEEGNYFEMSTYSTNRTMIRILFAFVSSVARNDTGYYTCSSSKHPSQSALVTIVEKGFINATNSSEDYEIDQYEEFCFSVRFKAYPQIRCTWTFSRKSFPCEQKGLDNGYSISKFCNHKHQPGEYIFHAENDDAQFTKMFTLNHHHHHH
In words: ITC at 37 C, Flt3 ectodomain titrated with FL; Flt3D1-D4 ectodomain. The procedure: (§1) Experiments were carried out using a VP-ITC MicroCalorimeter (MicroCal, MA) at 37° C., and data were analyzed using the Origin ITC analysis software package supplied by MicroCal. Purified recombinant Flt3 ectodomain constructs and FL were dialyzed overnight against 10 mM Tris-HCl, pH 7.4, at 4° C. Protein concentrations were measured spectrophotometrically at 280 nm using calculated theoretical extinction coefficients and all solutions were extensively degassed prior to use. The sample was stirred at a speed of 400 rpm throughout. The thermal titration data were fit to the “one binding site model”, and apparent molar reaction enthalpy (ΔH°), apparent entropy (ΔS°), association constant (Ka) and stoichiometry of binding (N) were determined. Several titrations were performed to evaluate reproducibility.
(§2) To quantify the thermodynamics, stoichiometry and affinity of extracellular complexes and to dissect the contribution of individual ectodomain modules to complex formation, isothermal titration calorimetry (ITC) was employed. This led to a number of consensus observations (FIG. 1D-F). […] Upon adjusting the Flt3 concentration to the approximate active receptor fraction (˜50%) estimated via the chromatographic elution profile of complex formation, a stoichiometry and thermodynamic signature consistent with that of the other two complexes is detected (FIG. 1F).

In assay [2] the target is T2, Flt3D1-D5, recombinant human Flt3 ectodomain (residues 27-541) with C-terminal hexahistidine tag (human, UniProt P36888 27-541, N-linked glycosylation at 43, 100, 151, 306, 323, 351, 354, 473, 502 (at least partially occupied, by mass spectrometry)).
T2 construct: Secreted from HEK293T or HEK293S GnTI-/- cells and glycosylated; The secretion signal is not part of the mature protein; also called Flt3D15(27-541); Flt3D1-5
T2 sequence: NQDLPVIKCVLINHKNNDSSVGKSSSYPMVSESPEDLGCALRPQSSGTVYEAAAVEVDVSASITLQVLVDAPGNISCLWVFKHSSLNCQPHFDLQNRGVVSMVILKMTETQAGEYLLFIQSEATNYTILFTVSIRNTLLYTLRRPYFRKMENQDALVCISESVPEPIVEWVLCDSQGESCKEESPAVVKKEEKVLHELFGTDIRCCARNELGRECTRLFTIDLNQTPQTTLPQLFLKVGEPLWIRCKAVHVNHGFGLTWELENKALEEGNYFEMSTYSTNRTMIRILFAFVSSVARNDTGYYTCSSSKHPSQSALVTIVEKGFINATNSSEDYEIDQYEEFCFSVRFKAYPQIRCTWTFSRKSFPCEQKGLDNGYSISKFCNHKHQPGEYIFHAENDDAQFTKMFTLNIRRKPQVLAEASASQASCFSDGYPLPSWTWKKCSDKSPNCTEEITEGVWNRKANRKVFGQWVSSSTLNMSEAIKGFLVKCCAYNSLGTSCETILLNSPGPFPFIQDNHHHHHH
Nature of the assay: isothermal titration calorimetry at 37 °C, Flt3 ectodomain titrated with FL, one binding site model.
Source text: (§3) (A-B) Isolation of Flt3D1-D5:FL and Flt3D1-D4:FL by size-exclusion chromatography (SEC). Also shown are Coomassie-stained SDS-PAGE strips corresponding to the peak fraction of the isolated complexes. The elution profiles of the complexes are characterized by large shifts to a single, faster migrating peak corresponding to the respective complex. (C) Size-exclusion chromatography on the Flt3D1-D3:FL mixture at the end of an ITC experiment, showing that a large amount of Flt3D1-D3 remains in the unbound form. Identical elution profiles were obtained in standard SEC experiments as well, in the presence of a large molar excess of FL. (D-F) Binding isotherms and thermodynamic parameters of FL binding to Flt3 ectodomains obtained by Isothermal Titration calorimetry (ITC). All experiments were performed by titrating recombinant Flt3 extracellular domains with FL.
as §1

Assay [3] addresses T3, Flt3D1-D3, recombinant human Flt3 ectodomain variant (residues 27-346) with C-terminal hexahistidine tag (human, UniProt P36888 27-346, N-linked glycosylation (glycosylated protein from HEK293 cells)).
T3 construct: also called Flt3D13(27-346)
T3 sequence: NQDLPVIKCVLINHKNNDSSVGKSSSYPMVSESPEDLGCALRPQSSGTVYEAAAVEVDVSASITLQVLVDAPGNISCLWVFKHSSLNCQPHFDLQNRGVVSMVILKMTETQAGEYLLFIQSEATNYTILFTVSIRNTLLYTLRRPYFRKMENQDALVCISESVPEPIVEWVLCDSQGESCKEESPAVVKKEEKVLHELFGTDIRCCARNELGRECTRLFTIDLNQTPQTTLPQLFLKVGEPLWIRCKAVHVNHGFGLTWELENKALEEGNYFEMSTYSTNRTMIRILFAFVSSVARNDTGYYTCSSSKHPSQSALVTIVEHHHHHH
The assay is described as above.
Source text: as §3, §1

The target of assay [4] is T1, Flt3D1-D4, recombinant human Flt3 …. The assay is described as above.
Source text: as §3, §1

In assay [5] the target is T3, Flt3D1-D3, recombinant human Flt3 …. Nature of the assay: ITC at 37 C, Flt3 ectodomain titrated with FL; Flt3D1-D3 ectodomain; about 50% active receptor fraction. The procedure: as §1, §2
In assay [6] the target is T4, Flt3D1, recombinant human Flt3 ectodomain variant (residues 27-161) with C-terminal hexahistidine tag (human, UniProt P36888 27-161, N-linked glycosylation (glycosylated protein from HEK293 cells)).
T4 construct: also called Flt3D1(27-161)
T4 sequence: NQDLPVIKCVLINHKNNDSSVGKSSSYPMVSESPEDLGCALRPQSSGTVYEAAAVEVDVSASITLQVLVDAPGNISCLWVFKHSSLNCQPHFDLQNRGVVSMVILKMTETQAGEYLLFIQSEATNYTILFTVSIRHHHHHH
In words: size-exclusion chromatography with FL. For orientation: Size exclusion chromatography separates by hydrodynamic size, large species first.

Assay [7] deals with T5, Flt3D1-D2, recombinant human Flt3 ectodomain variant (residues 27-244) with C-terminal hexahistidine tag (human, UniProt P36888 27-244, N-linked glycosylation (glycosylated protein from HEK293 cells)).
T5 construct: also called Flt3D12 (27-244)
T5 sequence: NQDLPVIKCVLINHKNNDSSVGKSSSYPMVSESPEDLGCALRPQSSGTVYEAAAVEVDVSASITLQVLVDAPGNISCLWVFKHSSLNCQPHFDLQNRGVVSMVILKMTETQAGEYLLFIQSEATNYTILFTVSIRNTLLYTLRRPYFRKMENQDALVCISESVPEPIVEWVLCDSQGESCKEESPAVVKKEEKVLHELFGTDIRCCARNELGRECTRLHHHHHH
In words: size-exclusion chromatography with FL.

Assay [8] addresses T2, Flt3D1-D5, recombinant human Flt3 …. Nature of the assay: ITC at 37 C, one binding site model. The procedure: as §1, §2
The target of assay [9] is T1, Flt3D1-D4, recombinant human Flt3 …. Nature of the assay: ITC at 37 C, one binding site model. The procedure: as §1, §2
Assay [10] addresses T2, Flt3D1-D5, recombinant human Flt3 …. In words: ITC at 37 C, Flt3 ectodomain titrated with FL; Flt3D1-D5 ectodomain. The procedure: as §1, §2

B1: recombinant human FL (fms-like tyrosine kinase receptor-3 ligand) produced in E. coli (ligand)
chain: TQDCSFQHSPISSDFAVKIRELSDYLLQDYPVTVASNLQDEELCGGLWRLVLAQRWMERLKTVAGSKMQGLLERVNTEIHFVTKCAFQPPPSCLRFVQTNISRLLQETSEQLVALKPWITRQNFSRCLELQCQP
notes: Dimeric cytokine; also called Flt3 ligand; cognate ligand
What is called Kd is the equilibrium constant for the complex coming apart. In the case of B1, the equilibrium dissociation constant (Kd) in assay [1] amounted to 40 nM; in assay [3], 74.6 nM; in assay [5], 70 nM; in assay [10], 8.7 nM. Further, the results for the N in assay [2], in assay [3] and in assay [4] were 0.42, 0.121 and 0.45, respectively. Moreover, the values for the ΔH in assay [2], in assay [3] and in assay [4] were -51.7 kcal/mol, -24.9 kcal/mol and -55.9 kcal/mol, respectively. Moreover, the ΔS in assay [2] was -130 cal mol-1 K-1; in [3] it was -47.5 cal mol-1 K-1; in assay [4] it was -146 cal mol-1 K-1. The binding result in [6] and in assay [7] was “no binding” each time. The “stoichiometry of binding (N)” value in assay [8] and in assay [9] was 0.5 each time.
